Values of other authors in paper PMC3369218 (Biochemistry, 2012).

Details: for E′ (Fe^3+/Fe^2+): 25 °C, pH 7

| Molecule | E′ (Fe^3+/Fe^2+) | reduction potential |
| --- | --- | --- |
| WT CcP from S. cerevisiae: wild-type cytochrome c peroxidase (protein, UniProt P00431 68-361, looked up) Cytochrome c peroxidase, …: TTPLVHVASVEKGRSYEDFQKVYNAIALKLREDDEYDNYIGYGPVLVRLAWHTSGTWDKHDNTGGSYGGTYRFKKEFNDPSNAGLQNGFKFLEPIHKEFPWISSGDLFSLGGVTAVQEMQGPKIPWRCGRVDTPEDTTPDNGRLPDADKDADYVRTFFQRLNMNDREVVALMGAHALGKTHLKNSGYEGPWGAANNVFTNEFYLNLLNEDWKLEKNDANNEQWDSKSGYMMLPTDYSLIQDPKYLSIVKEYANDQDKFFKDFSKAFEKLLENGITFPKDAPSPFIFKTLEEQGL | –0.189 V vs NHE |  |
| CcP(R48K) from S. cerevisiae: cytochrome c peroxidase R48K distal pocket mutant (protein, UniProt P00431 68-361, looked up, variant R48K) Cytochrome c peroxidase, …: TTPLVHVASVEKGRSYEDFQKVYNAIALKLREDDEYDNYIGYGPVLVKLAWHTSGTWDKHDNTGGSYGGTYRFKKEFNDPSNAGLQNGFKFLEPIHKEFPWISSGDLFSLGGVTAVQEMQGPKIPWRCGRVDTPEDTTPDNGRLPDADKDADYVRTFFQRLNMNDREVVALMGAHALGKTHLKNSGYEGPWGAANNVFTNEFYLNLLNEDWKLEKNDANNEQWDSKSGYMMLPTDYSLIQDPKYLSIVKEYANDQDKFFKDFSKAFEKLLENGITFPKDAPSPFIFKTLEEQGL | –0.186 V vs NHE |  |
| Cld from I. dechloratans: chlorite dismutase from Ideonella dechloratans (protein, UniProt Q9F437 39-285, looked up) Chlorite dismutase: AMNTPVDRAKILSAPGVFVAFSTYKIRPDYFKVALAERKGAADEVMAVLEKHKEKVIVDAYLTRGYEAKSDYFLRVHAYDAVAAQAFLVDFRATRFGMYSDVTESLVGITKALNYISKDKSPDLNKGLSGATYAGDAPRFAFMIPVKKNADWWNLTDEQRLKEMETHTLPTLPFLVNVKRKLYHSTGLDDTDFITYFETNDLGAFNNLMLSLAKVPENKYHVRWGNPTVLGTIQPIENLVKTLSMGN | –0.021 V vs NHE | –21 mV |
